Experiments:
[1] = biological target: chimera EGF-R/ERBB2 (HER 1/2) (Homo sapiens (Human)) (UniProt P00533)
[2] = biological target: HER1/2 VA (Homo sapiens (Human)) (UniProt P00533)

Erbin of the MDCK cells was tested, and the basolateral localisation of the receptor on MDCK transfectants (biotinylation of the cell surface, autoradiography) (% basolateral) [1] was 83 and the basolateral localisation of the receptor on MDCK transfectants (biotinylation of the cell surface, autoradiography) (% basolateral) [2] was 53.

Reference: patent publication US20040014055A1
